Biological target: SARS-CoV-1 S/native spike ectodomain (with C-terminal foldon and His tag) (SARS coronavirus Tor2 (SARS-CoV-1))
Assay: negative-stain EM

## SARS-CoV-1 S/native spike ectodomain (with C-terminal foldon and His tag) (domain or fragment)
  stoichiometry N: 3
